Measurements as given in the supplement of paper PMC9112550, “Optimization of the antimicrobial peptide Bac7 by deep mutational scanning” (BMC Biology, 2022).

System: Escherichia coli TOP10
Test: shrunken log2 fold change of peptide-encoding DNA abundance (4.5 h post-induction vs induction); higher = less antimicrobial activity (less host growth inhibition)
Conditions: time post-induction: 4.5 h; library: site-saturation at positions 5, 18, 19, 20
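Further: peptides expressed intracellularly from a pBAD plasmid library in pooled LB shake-flask culture, induced with 0.3% L-arabinose, DNA abundance read by NGS, three biological replicates, DESeq2 with apeglm shrinkage.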

Row | Sequence | shrunken log2 fold change
1 | RRIRGRPPRLPRPRPRPNMCPRP | -0.0942
2 | RRIRGRPPRLPRPRPRPNNCPRP | 0.101
3 | RRIRGRPPRLPRPRPRPNPHPRP | 0.216
4 | RRIRGRPPRLPRPRPRPNPKPRP | 0.391
5 | RRIRGRPPRLPRPRPRPNRPPRP | -0.211
6 | RRIRGRPPRLPRPRPRPNVQPRP | 1.08
7 | RRIRGRPPRLPRPRPRPNVWPRP | 0.728
8 | RRIRGRPPRLPRPRPRPNWIPRP | -0.034
9 | RRIRGRPPRLPRPRPRPNYDPRP | 0.134
10 | RRIRGRPPRLPRPRPRPNYQPRP | -0.173
11 | RRIRGRPPRLPRPRPRPPASPRP | 1.07
12 | RRIRGRPPRLPRPRPRPPCAPRP | 0.978
13 | RRIRGRPPRLPRPRPRPPCIPRP | 0.117
14 | RRIRGRPPRLPRPRPRPPCPPRP | 0.86
15 | RRIRGRPPRLPRPRPRPPDEPRP | 1.27
16 | RRIRGRPPRLPRPRPRPPDRPRP | 0.564
17 | RRIRGRPPRLPRPRPRPPDYPRP | 0.135
18 | RRIRGRPPRLPRPRPRPPEAPRP | 1.33
19 | RRIRGRPPRLPRPRPRPPEIPRP | 0.851
20 | RRIRGRPPRLPRPRPRPPEKPRP | 1.64
21 | RRIRGRPPRLPRPRPRPPEQPRP | 1.29
22 | RRIRGRPPRLPRPRPRPPGFPRP | 0.484

Row | Sequence | shrunken log2 fold change
23 | RRIRGRPPRLPRPRPRPPGRPRP | 1.35
24 | RRIRGRPPRLPRPRPRPPGTPRP | 0.982
25 | RRIRGRPPRLPRPRPRPPGYPRP | 0.737
26 | RRIRGRPPRLPRPRPRPPHSPRP | 0.568
27 | RRIRGRPPRLPRPRPRPPLCPRP | 0.616
28 | RRIRGRPPRLPRPRPRPPLDPRP | 0.989
29 | RRIRGRPPRLPRPRPRPPLVPRP | 0.813
30 | RRIRGRPPRLPRPRPRPPMSPRP | 0.565
31 | RRIRGRPPRLPRPRPRPPPTPRP | 1.47
32 | RRIRGRPPRLPRPRPRPPQFPRP | 0.676
33 | RRIRGRPPRLPRPRPRPPQQPRP | 0.825
34 | RRIRGRPPRLPRPRPRPPQWPRP | 0.801
35 | RRIRGRPPRLPRPRPRPPSFPRP | 0.653
36 | RRIRGRPPRLPRPRPRPPTDPRP | 1.24
37 | RRIRGRPPRLPRPRPRPPTFPRP | 0.572
38 | RRIRGRPPRLPRPRPRPPTTPRP | 0.91
39 | RRIRGRPPRLPRPRPRPPYQPRP | 0.123
40 | RRIRGRPPRLPRPRPRPQATPRP | 1.2
41 | RRIRGRPPRLPRPRPRPQCLPRP | 0.405
42 | RRIRGRPPRLPRPRPRPQDQPRP | 0.531
43 | RRIRGRPPRLPRPRPRPQECPRP | 0.226
44 | RRIRGRPPRLPRPRPRPQFYPRP | 0.0417

Row | Sequence | shrunken log2 fold change
45 | RRIRGRPPRLPRPRPRPQGEPRP | 0.327
46 | RRIRGRPPRLPRPRPRPQGMPRP | 0.0957
47 | RRIRGRPPRLPRPRPRPQLEPRP | 0.838
48 | RRIRGRPPRLPRPRPRPQNFPRP | 0.136
49 | RRIRGRPPRLPRPRPRPQNHPRP | -0.18
50 | RRIRGRPPRLPRPRPRPQNIPRP | -0.603
51 | RRIRGRPPRLPRPRPRPQNWPRP | 0.0915
52 | RRIRGRPPRLPRPRPRPQPDPRP | 0.821
53 | RRIRGRPPRLPRPRPRPQPFPRP | -0.0232
54 | RRIRGRPPRLPRPRPRPQPRPRP | 0.9
55 | RRIRGRPPRLPRPRPRPQQSPRP | 0.465
56 | RRIRGRPPRLPRPRPRPQRFPRP | 0.139
57 | RRIRGRPPRLPRPRPRPQRIPRP | 0.178
58 | RRIRGRPPRLPRPRPRPQRRPRP | 0.565
59 | RRIRGRPPRLPRPRPRPQTDPRP | 0.381
60 | RRIRGRPPRLPRPRPRPQVMPRP | 0.532
61 | RRIRGRPPRLPRPRPRPQWEPRP | 0.0931
62 | RRIRGRPPRLPRPRPRPQYGPRP | -0.008
63 | RRIRGRPPRLPRPRPRPQYLPRP | 0.0284
64 | RRIRGRPPRLPRPRPRPRAEPRP | 1.01
65 | RRIRGRPPRLPRPRPRPRASPRP | 1.05
66 | RRIRGRPPRLPRPRPRPRAYPRP | 0.338

Row | Sequence | shrunken log2 fold change
67 | RRIRGRPPRLPRPRPRPRDSPRP | 0.257
68 | RRIRGRPPRLPRPRPRPREMPRP | 1.2
69 | RRIRGRPPRLPRPRPRPRENPRP | 0.978
70 | RRIRGRPPRLPRPRPRPRFTPRP | 0.582
71 | RRIRGRPPRLPRPRPRPRGRPRP | 1.52
72 | RRIRGRPPRLPRPRPRPRKDPRP | 0.726
73 | RRIRGRPPRLPRPRPRPRKKPRP | 0.774
74 | RRIRGRPPRLPRPRPRPRKQPRP | 0.875
75 | RRIRGRPPRLPRPRPRPRMGPRP | 0.868
76 | RRIRGRPPRLPRPRPRPRNHPRP | 0.563
77 | RRIRGRPPRLPRPRPRPRNLPRP | -0.0805
78 | RRIRGRPPRLPRPRPRPRPGPRP | 1.34
79 | RRIRGRPPRLPRPRPRPRPKPRP | 1.41
80 | RRIRGRPPRLPRPRPRPRPVPRP | 0.886
81 | RRIRGRPPRLPRPRPRPRQTPRP | -0.144
82 | RRIRGRPPRLPRPRPRPRQVPRP | 0.585
83 | RRIRGRPPRLPRPRPRPRREPRP | 0.381
84 | RRIRGRPPRLPRPRPRPRRNPRP | 0.609
85 | RRIRGRPPRLPRPRPRPRTAPRP | 1.12
86 | RRIRGRPPRLPRPRPRPRTQPRP | 0.826
87 | RRIRGRPPRLPRPRPRPRVRPRP | 0.789
88 | RRIRGRPPRLPRPRPRPRVTPRP | 0.744

Row | Sequence | shrunken log2 fold change
89 | RRIRGRPPRLPRPRPRPSANPRP | 0.858
90 | RRIRGRPPRLPRPRPRPSAWPRP | 1.94
91 | RRIRGRPPRLPRPRPRPSDSPRP | -0.0596
92 | RRIRGRPPRLPRPRPRPSDVPRP | 0.0304
93 | RRIRGRPPRLPRPRPRPSGEPRP | 0.598
94 | RRIRGRPPRLPRPRPRPSIHPRP | 0.162
95 | RRIRGRPPRLPRPRPRPSKFPRP | 0.0363
96 | RRIRGRPPRLPRPRPRPSKKPRP | 0.609
97 | RRIRGRPPRLPRPRPRPSLKPRP | 0.441
98 | RRIRGRPPRLPRPRPRPSLLPRP | 0.547
99 | RRIRGRPPRLPRPRPRPSLTPRP | 0.78
100 | RRIRGRPPRLPRPRPRPSLVPRP | 0.473
101 | RRIRGRPPRLPRPRPRPSLWPRP | 0.611
102 | RRIRGRPPRLPRPRPRPSLYPRP | 0.189
103 | RRIRGRPPRLPRPRPRPSMFPRP | 0.554
104 | RRIRGRPPRLPRPRPRPSNMPRP | -0.113
105 | RRIRGRPPRLPRPRPRPSNRPRP | 0.113
106 | RRIRGRPPRLPRPRPRPSNVPRP | 0.175
107 | RRIRGRPPRLPRPRPRPSPSPRP | 0.649
108 | RRIRGRPPRLPRPRPRPSRVPRP | 0.61
109 | RRIRGRPPRLPRPRPRPSRYPRP | -0.0843
